Laboratory results: patent US20210032299A1
Starred links: 1 amine or outer side, 2 acyl side, 3 side chain; linkers in the order of their positions; H or OH if unused. Non-standard residues stand in square brackets, D forms with d. Groups on a side chain read outwards from the residue. No end group written: not given here. *: point of attachment. C20 diacid = O=C(O)CCCCCCCCCCCCCCCCCCC(=O)*; C18 diacid = O=C(O)CCCCCCCCCCCCCCCCC(=O)*; αMePhe(2-F) = C[C@](N)(Cc1ccccc1F)C(=O)O; γGlu = O=C(O)[C@H](CCC(=O)[*:2])N[*:1]; 4Pal = N[C@@H](Cc1ccncc1)C(=O)O; αMeL = CC(C)C[C@](C)(N)C(=O)O; Orn = NCCC[C@H](N)C(=O)O; AEEA = NCCOCCOCC(=O)O; Aib = CC(C)(N)C(=O)O

Assays:
[1] = molecular target: human glucagon receptor (human), P47871; assay: SPA, displacement of [125I]-Gcg from hGcgR membranes, 0.1% bacitracin
Sequence of human glucagon receptor (human), P47871 (P47871 26-477): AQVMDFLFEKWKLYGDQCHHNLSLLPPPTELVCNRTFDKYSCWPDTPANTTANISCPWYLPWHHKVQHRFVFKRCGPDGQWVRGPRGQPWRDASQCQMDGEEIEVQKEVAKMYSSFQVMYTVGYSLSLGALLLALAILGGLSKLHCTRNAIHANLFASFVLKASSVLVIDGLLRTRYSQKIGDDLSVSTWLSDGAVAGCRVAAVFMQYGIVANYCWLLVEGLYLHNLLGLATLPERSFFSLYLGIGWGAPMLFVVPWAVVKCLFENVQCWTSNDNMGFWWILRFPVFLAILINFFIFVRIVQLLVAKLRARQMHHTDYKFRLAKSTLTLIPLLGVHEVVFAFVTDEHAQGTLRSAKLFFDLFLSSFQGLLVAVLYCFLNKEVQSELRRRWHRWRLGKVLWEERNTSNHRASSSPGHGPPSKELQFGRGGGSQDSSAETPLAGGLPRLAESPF

[2] = molecular target: T1, human GLP-1 receptor (human), P43220; assay: SPA, displacement of [125I]-GLP-1 from hGLP-1R membranes, 0.1% bacitracin
T1 chain: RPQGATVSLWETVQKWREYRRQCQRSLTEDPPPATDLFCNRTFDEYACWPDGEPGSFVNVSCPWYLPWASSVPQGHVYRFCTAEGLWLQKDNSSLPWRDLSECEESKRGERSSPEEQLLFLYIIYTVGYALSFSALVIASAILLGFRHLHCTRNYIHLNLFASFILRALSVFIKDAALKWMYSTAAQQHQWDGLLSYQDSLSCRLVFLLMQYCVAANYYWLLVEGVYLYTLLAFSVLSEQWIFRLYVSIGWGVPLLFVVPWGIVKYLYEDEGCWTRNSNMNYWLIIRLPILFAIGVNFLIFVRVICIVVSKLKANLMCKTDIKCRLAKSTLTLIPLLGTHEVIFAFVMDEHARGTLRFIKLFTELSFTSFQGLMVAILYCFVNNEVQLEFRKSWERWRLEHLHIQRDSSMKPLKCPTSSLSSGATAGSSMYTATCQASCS

[3] = molecular target: T2, human glucose-dependent insulinotropic polypeptide (GIP) receptor (human), P48546; assay: SPA, displacement of [125I]-GIP from hGIPR membranes, 0.1% bacitracin
T2 chain: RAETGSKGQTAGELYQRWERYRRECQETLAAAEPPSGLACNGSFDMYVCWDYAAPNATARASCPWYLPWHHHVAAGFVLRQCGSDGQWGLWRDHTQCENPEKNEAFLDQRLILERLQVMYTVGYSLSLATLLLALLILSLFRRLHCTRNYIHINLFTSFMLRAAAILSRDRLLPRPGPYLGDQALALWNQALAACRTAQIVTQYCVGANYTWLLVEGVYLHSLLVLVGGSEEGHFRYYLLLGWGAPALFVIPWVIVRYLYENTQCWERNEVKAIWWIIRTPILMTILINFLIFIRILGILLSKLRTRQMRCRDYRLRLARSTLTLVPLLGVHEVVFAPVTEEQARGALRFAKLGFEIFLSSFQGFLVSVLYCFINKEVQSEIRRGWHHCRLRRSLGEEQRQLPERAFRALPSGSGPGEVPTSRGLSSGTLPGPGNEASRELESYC

B1: Example 6 (peptide)
peptide: Y[Aib]EGTFISDYSI[αMeL]LD[Orn]IHQ[Aib]DFVEYK([AEEA-AEEA-γGlu-C20 diacid])LEGGPSSGAPPPS-NH2
For B1, the Ki [1] was 453 nM, the Ki [2] was 571 nM and the Ki [3] was 0.104 nM.

B2: Example 120 (peptide)
peptide: Y[Aib]EGT[αMePhe(2-F)]ISDYSILLDKIHQ[Aib]DFVE[4Pal]K([AEEA-AEEA-γGlu-C20 diacid])LEAGPSSGAPPPS-NH2
modifications: N-terminus assumed
SMILES: CC[C@H](C)[C@H](NC(=O)[C@H](CO)NC(=O)[C@H](Cc1ccc(O)cc1)NC(=O)[C@H](CC(=O)O)NC(=O)[C@H](CO)NC(=O)[C@@H](NC(=O)[C@](C)(Cc1ccccc1F)NC(=O)[C@@H](NC(=O)CNC(=O)[C@H](CCC(=O)O)NC(=O)C(C)(C)NC(=O)[C@@H](N)Cc1ccc(O)cc1)[C@@H](C)O)[C@@H](C)CC)C(=O)N[C@@H](CC(C)C)C(=O)N[C@@H](CC(C)C)C(=O)N[C@@H](CC(=O)O)C(=O)N[C@@H](CCCCN)C(=O)N[C@H](C(=O)N[C@@H](Cc1c[nH]cn1)C(=O)N[C@@H](CCC(N)=O)C(=O)NC(C)(C)C(=O)N[C@@H](CC(=O)O)C(=O)N[C@@H](Cc1ccccc1)C(=O)N[C@H](C(=O)N[C@@H](CCC(=O)O)C(=O)N[C@@H](Cc1ccncc1)C(=O)N[C@@H](CCCCNC(=O)COCCOCCNC(=O)COCCOCCNC(=O)CC[C@H](NC(=O)CCCCCCCCCCCCCCCCCCC(=O)O)C(=O)O)C(=O)N[C@@H](CC(C)C)C(=O)N[C@@H](CCC(=O)O)C(=O)N[C@@H](C)C(=O)NCC(=O)N1CCC[C@H]1C(=O)N[C@@H](CO)C(=O)N[C@@H](CO)C(=O)NCC(=O)N[C@@H](C)C(=O)N1CCC[C@H]1C(=O)N1CCC[C@H]1C(=O)N1CCC[C@H]1C(=O)N[C@@H](CO)C(N)=O)C(C)C)[C@@H](C)CC
In the case of B2, the Ki [1] is reported as 575 nM and the Ki [3] is reported as 0.171 nM.

B3: Example 95 (peptide)
peptide: Y[Aib]EGT[αMePhe(2-F)]ISDYSIALDKIHQ[Aib]EFVNYK([AEEA-AEEA-γGlu-C20 diacid])LEGGPSSGAPPPS-NH2
modifications: N-terminus assumed
SMILES: CC[C@H](C)[C@H](NC(=O)[C@H](CO)NC(=O)[C@H](Cc1ccc(O)cc1)NC(=O)[C@H](CC(=O)O)NC(=O)[C@H](CO)NC(=O)[C@@H](NC(=O)[C@](C)(Cc1ccccc1F)NC(=O)[C@@H](NC(=O)CNC(=O)[C@H](CCC(=O)O)NC(=O)C(C)(C)NC(=O)[C@@H](N)Cc1ccc(O)cc1)[C@@H](C)O)[C@@H](C)CC)C(=O)N[C@@H](C)C(=O)N[C@@H](CC(C)C)C(=O)N[C@@H](CC(=O)O)C(=O)N[C@@H](CCCCN)C(=O)N[C@H](C(=O)N[C@@H](Cc1c[nH]cn1)C(=O)N[C@@H](CCC(N)=O)C(=O)NC(C)(C)C(=O)N[C@@H](CCC(=O)O)C(=O)N[C@@H](Cc1ccccc1)C(=O)N[C@H](C(=O)N[C@@H](CC(N)=O)C(=O)N[C@@H](Cc1ccc(O)cc1)C(=O)N[C@@H](CCCCNC(=O)COCCOCCNC(=O)COCCOCCNC(=O)CC[C@H](NC(=O)CCCCCCCCCCCCCCCCCCC(=O)O)C(=O)O)C(=O)N[C@@H](CC(C)C)C(=O)N[C@@H](CCC(=O)O)C(=O)NCC(=O)NCC(=O)N1CCC[C@H]1C(=O)N[C@@H](CO)C(=O)N[C@@H](CO)C(=O)NCC(=O)N[C@@H](C)C(=O)N1CCC[C@H]1C(=O)N1CCC[C@H]1C(=O)N1CCC[C@H]1C(=O)N[C@@H](CO)C(N)=O)C(C)C)[C@@H](C)CC
With B3 the Ki [1] was 85 nM, the Ki [2] was 832 nM and the Ki [3] was 0.0255 nM.

B4: Example 87 (peptide)
peptide: Y[Aib]EGTFISDYSI[αMeL]LD[Orn]K([AEEA-AEEA-γGlu-C18 diacid])HQ[Aib]DFVE[4Pal]LLEAGPSSGAPPPS-NH2
modifications: N-terminus assumed
SMILES: CC[C@H](C)[C@H](NC(=O)[C@H](Cc1ccccc1)NC(=O)[C@@H](NC(=O)CNC(=O)[C@H](CCC(=O)O)NC(=O)C(C)(C)NC(=O)[C@@H](N)Cc1ccc(O)cc1)[C@@H](C)O)C(=O)N[C@@H](CO)C(=O)N[C@@H](CC(=O)O)C(=O)N[C@@H](Cc1ccc(O)cc1)C(=O)N[C@@H](CO)C(=O)N[C@H](C(=O)N[C@@](C)(CC(C)C)C(=O)N[C@@H](CC(C)C)C(=O)N[C@@H](CC(=O)O)C(=O)N[C@@H](CCCN)C(=O)N[C@@H](CCCCNC(=O)COCCOCCNC(=O)COCCOCCNC(=O)CC[C@H](NC(=O)CCCCCCCCCCCCCCCCC(=O)O)C(=O)O)C(=O)N[C@@H](Cc1c[nH]cn1)C(=O)N[C@@H](CCC(N)=O)C(=O)NC(C)(C)C(=O)N[C@@H](CC(=O)O)C(=O)N[C@@H](Cc1ccccc1)C(=O)N[C@H](C(=O)N[C@@H](CCC(=O)O)C(=O)N[C@@H](Cc1ccncc1)C(=O)N[C@@H](CC(C)C)C(=O)N[C@@H](CC(C)C)C(=O)N[C@@H](CCC(=O)O)C(=O)N[C@@H](C)C(=O)NCC(=O)N1CCC[C@H]1C(=O)N[C@@H](CO)C(=O)N[C@@H](CO)C(=O)NCC(=O)N[C@@H](C)C(=O)N1CCC[C@H]1C(=O)N1CCC[C@H]1C(=O)N1CCC[C@H]1C(=O)N[C@@H](CO)C(N)=O)C(C)C)[C@@H](C)CC
B4 was tested, and the Ki [1] was 576 nM, the Ki [2] was 849 nM and the Ki [3] was 0.0538 nM.

B5: Example 4 (peptide)
peptide: Y[Aib]EGTFISDYSI[αMeL]LD[Orn]K([AEEA-AEEA-γGlu-C20 diacid])HQ[Aib]DFVE[4Pal]LLEAGPSSGAPPPS-NH2
modifications: N-terminus assumed
SMILES: CC[C@H](C)[C@H](NC(=O)[C@H](Cc1ccccc1)NC(=O)[C@@H](NC(=O)CNC(=O)[C@H](CCC(=O)O)NC(=O)C(C)(C)NC(=O)[C@@H](N)Cc1ccc(O)cc1)[C@@H](C)O)C(=O)N[C@@H](CO)C(=O)N[C@@H](CC(=O)O)C(=O)N[C@@H](Cc1ccc(O)cc1)C(=O)N[C@@H](CO)C(=O)N[C@H](C(=O)N[C@@](C)(CC(C)C)C(=O)N[C@@H](CC(C)C)C(=O)N[C@@H](CC(=O)O)C(=O)N[C@@H](CCCN)C(=O)N[C@@H](CCCCNC(=O)COCCOCCNC(=O)COCCOCCNC(=O)CC[C@H](NC(=O)CCCCCCCCCCCCCCCCCCC(=O)O)C(=O)O)C(=O)N[C@@H](Cc1c[nH]cn1)C(=O)N[C@@H](CCC(N)=O)C(=O)NC(C)(C)C(=O)N[C@@H](CC(=O)O)C(=O)N[C@@H](Cc1ccccc1)C(=O)N[C@H](C(=O)N[C@@H](CCC(=O)O)C(=O)N[C@@H](Cc1ccncc1)C(=O)N[C@@H](CC(C)C)C(=O)N[C@@H](CC(C)C)C(=O)N[C@@H](CCC(=O)O)C(=O)N[C@@H](C)C(=O)NCC(=O)N1CCC[C@H]1C(=O)N[C@@H](CO)C(=O)N[C@@H](CO)C(=O)NCC(=O)N[C@@H](C)C(=O)N1CCC[C@H]1C(=O)N1CCC[C@H]1C(=O)N1CCC[C@H]1C(=O)N[C@@H](CO)C(N)=O)C(C)C)[C@@H](C)CC
With B5 the Ki [1] was 431 nM, the Ki [2] was 423 nM and the Ki [3] was 0.062 nM.
